We go through 6 molecules from patent US20240141071A1 (LAVA THERAPEUTICS N V, published 2024).

Changes are numbered by the printed parent chain. Where “and” joins values, the source holds several entries; their conditions need not be identical. Equal values may be shown once. Some results are limits rather than exact numbers.

The target in assay [1] is T1, recombinant purified CD123-Fc fusion protein (Bio-Techne/R&D Systems) (human, UniProt P26951 19-305).
T1 construct: Bought; also called Fc-fusion of the CD123 antigen; recombinant CD123
T1 sequence: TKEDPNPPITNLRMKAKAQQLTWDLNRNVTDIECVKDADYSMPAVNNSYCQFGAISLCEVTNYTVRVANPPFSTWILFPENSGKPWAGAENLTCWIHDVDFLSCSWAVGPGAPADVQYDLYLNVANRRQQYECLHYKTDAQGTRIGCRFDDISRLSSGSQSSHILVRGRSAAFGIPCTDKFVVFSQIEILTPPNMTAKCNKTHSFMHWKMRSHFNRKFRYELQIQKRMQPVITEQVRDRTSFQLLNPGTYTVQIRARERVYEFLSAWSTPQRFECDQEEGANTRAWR
As to the kind of experiment: BLI, CD123-Fc on anti-human IgG Fc capture sensors; SD 4.3. As for the experimental part:
(§1) To determine the kinetics of binding of humanized 1D2-5C8var1 variants to CD123, recombinant purified CD123-Fc fusion protein (Bio-Techne/R&D Systems) was loaded to a density of 1 nm onto anti-human IgG Fc Capture sensors (using a concentration of 5 μg/ml) for an Octet Red96e (Sartorius) instrument. Different sensors were then dipped in different concentrations of humanized 1D2-5C8var1 variants, starting at 50 nM and two-fold dilutions thereof; dilutions were made in 10× kinetic buffer (10×KB) provided by the supplier. From the obtained sensorgrams, the kinetic association- and dissociation rate constants were determined by curve fitting. The association- and dissociation rate constants, when fitting was possible, were used to calculate the affinity of the humanized 1D2-5C8var1 variants for binding to CD123. […] For reference, the non-humanized (parental) 1D2 was included in these experiments.
(In general: BLI is a label-free optical method that tracks binding on a fibre tip over time.)

The target in assay [2] is T1, recombinant purified CD123-Fc fusion …. As to the kind of experiment: BLI, CD123-Fc on anti-human IgG Fc capture sensors; SD 0.5. As to the method:
as §1

The target is the same in assay [3]. As to the kind of experiment: BLI, CD123-Fc on anti-human IgG Fc capture sensors; SD 0.4. As to the method:
as §1

Assay [4] has the same target. As to the kind of experiment: BLI, CD123-Fc on anti-human IgG Fc capture sensors; SD 1.5. As for the experimental part: as §1
Assay [5] addresses T2, human CD123 expressed on cells (human, UniProt P26951 19-378). As to the kind of experiment: cell-based or functional assay.
In assay [6] the target is T1, recombinant purified CD123-Fc fusion …. As to the kind of experiment: BLI, CD123-Fc on anti-human IgG Fc capture sensors; SD 0.7. As to the method:
as §1

The target in another assay is T3, BSA (bovine, UniProt P02769).
T3 construct: also called bovine serum albumin, negative control coating
As to the kind of experiment: ELISA, wells coated with 1% BSA (panel BSA), HRP anti-VHH detection. An excerpt: FIG. 1: ELISA showing binding of all different bispecific VHHs to CD123, the Vγ9Vδ2 (GDT) TCR and BSA (as negative control). OD values are depicted; values are the mean of duplicate measurements; error bars indicate standard errors of the mean. A mono-valent anti-Vδ2 VHH was used as control for the TCR staining (“TCR control”) and a commercially available anti-CD123 antibody (“anti-CD123”) was used as control for the CD123 antigen coatings. “No AB” indicates a negative control without primary antibody.
Recombinant, purified CD123 antigen (extra-cellular domain; Sino Biological), or an Fc-fusion of the CD123 antigen (Bio-Techne/R&D Systems) was coated to the wells of an ELISA plate (Greiner) in PBS at a concentration of 2 μg/ml. As a negative control, wells were coated with 1% (w/v) BSA. An in-house designed, produced and purified recombinant form of the extra-cellular domains of the human Vγ9 and Vδ2 TCR chains fused to a human Fc was also coated as antigen at 2 μg/ml. After coating and blocking of the wells with 2% (w/v) BSA, bispecific VHH proteins were tested for binding at a saturating concentration of 50 nM and bound VHH was detected using an HRP-labeled anti-VHH antibody (Genscript) and staining using 3,3′,5,5′-tetramethylbenzidine (TMB)/H2O2.

The target in assay [7] is T1, recombinant purified CD123-Fc fusion …. As to the kind of experiment: BLI, CD123-Fc on anti-human IgG Fc capture sensors, Octet Red96e, two measurements. As to the method:
To determine the kinetics of binding of 1D2-5C8var1 to CD123, recombinant purified CD123-Fc fusion protein (Bio-Techne/R&D Systems) was loaded to a density of 1nm onto anti-human IgG Fc Capture sensors (using a concentration of 5 μg/ml) for an Octet Red96e (Sartorius) instrument. Different sensors were then dipped in different concentrations of 1D2-5C8var1; dilutions were made in 10× kinetic buffer (10×KB) provided by the supplier. From the obtained sensorgrams, the kinetic association- and dissociation rate constants were determined by curve fitting.
The latter is depicted as straight lines in the figure. This was used to determine the kinetic association- and dissociation rate constants and thereby the affinity of the anti-CD123 VHH 1D2.

The target of assay [8] is T2, human CD123 expressed on cells. As to the kind of experiment: flow cytometry titration on 293F cells transiently expressing CD123, anti-VHH detection. As for the experimental part:
(§2) FIG. 3: Determination of the apparent affinity of 1D2-5C8var1 for binding to CD123 using flow cytometry. […] The geometric mean of the fluorescence intensity is plotted as a function of the antibody concentration used. The EC50 value was determined by curve fitting.
(§3) Expression constructs for human CD123 and for the common β chain of the receptor (CD131) were purchased from Invivogen. Plasmids were transformed to chemically competent DH5α bacteria and a single colony growing on selective medium was used to inoculate a 50 ml culture to amplify both constructs. […] Either plasmid alone, or a mix of the two plasmids was used for transfection. As negative control, untransfected cells were also used for flow cytometry. A day after transfection, cells were used to test the binding of the bispecific VHH using staining in FACS. Briefly, binding of a saturating concentration of 100 nM bispecific VHH to transfected cells was detected with an AF647-labeled anti-VHH (Genscript) antibody and staining was visualized using a FACS Celesta (Becton and Dickinson).
(§4) The former cells (expressing CD131) were used as negative control.

Assay [9] addresses T4, human CD131 (common β chain of the IL3 receptor) expressed on 293F cells (human, UniProt P32927 17-897).
T4 sequence: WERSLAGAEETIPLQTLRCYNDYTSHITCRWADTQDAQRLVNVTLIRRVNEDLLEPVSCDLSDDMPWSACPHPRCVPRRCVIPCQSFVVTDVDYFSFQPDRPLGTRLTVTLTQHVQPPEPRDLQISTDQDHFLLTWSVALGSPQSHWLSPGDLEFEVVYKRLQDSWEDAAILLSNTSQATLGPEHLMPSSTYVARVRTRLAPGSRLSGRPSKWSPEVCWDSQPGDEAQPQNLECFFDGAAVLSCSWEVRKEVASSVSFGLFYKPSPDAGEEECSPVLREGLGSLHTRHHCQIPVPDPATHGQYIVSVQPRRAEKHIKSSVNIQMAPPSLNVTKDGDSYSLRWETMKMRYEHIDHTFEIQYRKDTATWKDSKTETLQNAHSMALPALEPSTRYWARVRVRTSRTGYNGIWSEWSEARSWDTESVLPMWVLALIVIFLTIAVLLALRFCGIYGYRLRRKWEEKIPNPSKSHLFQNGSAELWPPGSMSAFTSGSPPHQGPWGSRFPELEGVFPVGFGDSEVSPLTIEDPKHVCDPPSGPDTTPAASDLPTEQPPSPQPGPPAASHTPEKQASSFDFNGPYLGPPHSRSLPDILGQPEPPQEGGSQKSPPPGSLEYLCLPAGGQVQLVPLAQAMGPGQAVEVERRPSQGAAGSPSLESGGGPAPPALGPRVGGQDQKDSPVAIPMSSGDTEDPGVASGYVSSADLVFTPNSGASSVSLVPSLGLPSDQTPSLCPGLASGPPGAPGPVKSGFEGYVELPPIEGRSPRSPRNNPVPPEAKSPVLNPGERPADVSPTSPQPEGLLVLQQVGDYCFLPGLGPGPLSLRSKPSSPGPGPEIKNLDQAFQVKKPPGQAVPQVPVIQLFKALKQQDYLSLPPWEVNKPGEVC
As to the kind of experiment: flow cytometry on 293F cells transiently expressing CD131, AF647-labeled anti-VHH detection. As for the experimental part: as §3

For assay [10], the target named is human CD123 co-expressed with CD131 on 293F cells (human, UniProt P26951 19-378; P32927 17-897). As to the kind of experiment: flow cytometry titration on 293F cells transiently expressing CD123 and CD131, anti-VHH detection. As to the method:
as §2, §3, §4
Background: A flow cytometer gives signals particle by particle.

For assay [11], the target named is T2, human CD123 expressed on cells. As to the kind of experiment: flow cytometry titration on 293F cells transiently expressing CD123; apparent affinity, EC50 by curve fitting.
Assay [12] addresses T1, recombinant purified CD123-Fc fusion …. As to the kind of experiment: BLI, CD123-Fc on anti-human IgG Fc capture sensors, Octet Red96e. As to the method: as §1

T3 sequence (P02769 25-607 limits assumed): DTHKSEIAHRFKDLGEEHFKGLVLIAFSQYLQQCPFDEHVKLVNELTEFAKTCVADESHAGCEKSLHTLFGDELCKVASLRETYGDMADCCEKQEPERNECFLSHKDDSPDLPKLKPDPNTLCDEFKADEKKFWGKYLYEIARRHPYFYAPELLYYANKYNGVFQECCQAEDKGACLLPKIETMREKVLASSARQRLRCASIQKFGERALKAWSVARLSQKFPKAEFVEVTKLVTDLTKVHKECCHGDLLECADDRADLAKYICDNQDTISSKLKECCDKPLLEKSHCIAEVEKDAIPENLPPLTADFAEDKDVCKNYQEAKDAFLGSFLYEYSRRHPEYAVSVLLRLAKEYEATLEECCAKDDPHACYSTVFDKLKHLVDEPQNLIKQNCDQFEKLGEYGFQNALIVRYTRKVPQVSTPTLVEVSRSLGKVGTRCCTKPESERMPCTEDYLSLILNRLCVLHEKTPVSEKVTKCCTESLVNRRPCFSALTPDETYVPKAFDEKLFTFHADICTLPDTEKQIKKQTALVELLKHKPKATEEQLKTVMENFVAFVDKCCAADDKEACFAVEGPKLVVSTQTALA

B1: humanized 1D2-5C8var1 variant with 1D2 var3 (SEQ ID NO:27) (bispecific antibody)
chain: EVQLVESGGGLVQPGGSLRLSCAASGRTASSYVMSWFRQAPGKEREWVAVINWNGDSTYYADSVKGRFTISRDNSKNTVYLQMNSLRAEDTAVYYCAADTRREWYRDGYWGPPARYEYDYRGQGTLVTVSSGGGGSEVQLLESGGGSVQPGGSLRLSCAASGRPFSNYAMSWFRQAPGKEREFVSAISWSGGSTSYADSVKGRFTISRDNSKNTLYLQMNSLRAEDTAVYYCAAQFSGADYGFGRLGIRGYEYDYWGQGTQVTVSSAAAEPEA
notes: See note of m19
For orientation: Kd means the free concentration of one partner at which half of the binding sites on the other are occupied at equilibrium, for simple one-to-one binding. Consider B1, for which the Kd in [1] stood at 14.9 nM.

B2: humanized 1D2-5C8var1 variant with 1D2 var9 (SEQ ID NO:33) (bispecific antibody)
chain: B1 chain with P14A, S35G, A61T, T69A, S75A, L126Q
notes: See note of m19
Take B2: the Kd in assay [2] was 2.6 nM.

B3: humanized 1D2-5C8var1 variant with 1D2 var1 (SEQ ID NO:25) (bispecific antibody)
chain: B1 chain with S35G, W47F, A49S, V79L, L126Q
Regarding B3, the Kd in [3] was found to be 7.2 nM.

B4: humanized 1D2-5C8var1 variant with 1D2 var5 (SEQ ID NO:29) (bispecific antibody)
chain: B1 chain with W47F
notes: See note of m19
Regarding B4, in assay [4], the dissociation constant Kd is 7.7 nM.

B5: 1D2-5C8var1 bispecific VHH (bispecific antibody)
chain: B1 chain with P14A, S35G, W47F, A61T, T69A, S75A, R87K, A88P, L126Q
notes: Orientation N-term-anti-CD123 VHH-linker-anti-Vδ2 VHH-C-tag; also called parental 1D2
For orientation: EC50 (read off the curve) means the concentration at which the effect is half-maximal. What is called EC50 is the concentration that produces a half-maximal response. In the case of B5, the “EC50 for cytotoxicity, C1R-neo target cell lysis by Vγ9Vδ2 T cells, 24 h” value in assay [5] was 0.001 to 0.002 nM. Moreover, the “EC50 of T cell activation and lysis of primary AML blasts” value in [5] was less than 0.001 nM. For the same molecule, the “EC50 of THP-1 target cell lysis by Vγ9Vδ2 T cells” value in [5] amounted to 1000 nM. Besides, the “EC50 of THP-1 target cell lysis by Vγ9Vδ2 T cells, 24 h” value in assay [5] was in the range of 0.001 to 0.003 nM. The dissociation constant (Kd) in assay [6] is 3.1 nM; in assay [7] it was 3 to 5 nM and 5 nM. In addition, the binding result is “no binding (tested: 50 nM (single concentration))” in the assay with BSA and “no binding (tested: 100 nM (single concentration))” in assay [9]. The “EC50 (read off the curve)” value in [8] and in assay [10] was roughly 3 nM in each case. In [11], the 50% effective concentration (EC50) is roughly 3 nM.

B6: humanized 1D2-5C8var1 variant with 1D2 var7 (SEQ ID NO:31) (bispecific antibody)
chain: B1 chain with F37V, E44G, R45L, A49S, V79L
notes: See note of m19
Consider B6, for which the binding result in assay [12] was “no binding (tested: 50 nM (highest concentration tested))”.
